Several values for one entry are separate records, joined by “and”; a condition that tells them apart may be missing. Equal values may be shown once.
What was measured:
[1] = target: HIV-1 JR-FL envelope glycoproteins (membrane-bound gp120/gp41) (HIV-1 JR-FL); assay: cell-based or functional assay
[2] = target: recombinant, monomeric JR-FL gp120 (full-length) (HIV-1 JR-FL) (UniProt P20871); assay: JR-FL gp120 (2 µg/ml) against 125I-MIP-1β on activated CD4+ T cells; antibody at 20 µg/ml
[3] = target: chemokine receptor C-C CKR-5 (human) (human) (UniProt P51681); assay: 125I-MIP-1β (0.1 nM) competition on activated CD4+ T cells; gp120 at .05 µg/ml [sic]
[4] = target: chemokine receptor C-C CKR-5 (human) (human) (UniProt P51681); assay: 125I-MIP-1β (0.1 nM) competition on activated CD4+ T cells; gp120 at 0.1 µg/ml
[5] = target: chemokine receptor C-C CKR-5 (human) (human) (UniProt P51681); assay: 125I-MIP-1β (0.1 nM) competition on activated CD4+ T cells; gp120 at 0.2 µg/ml
[6] = target: chemokine receptor C-C CKR-5 (human) (human) (UniProt P51681); assay: 125I-MIP-1β (0.1 nM) competition on activated CD4+ T cells; gp120 at 20 µg/ml
[7] = target: chemokine receptor C-C CKR-5 (human) (human) (UniProt P51681); assay: 125I-MIP-1β (0.1 nM) competition on activated CD4+ T cells; gp41 at 5 µg/ml
[8] = target: chemokine receptor C-C CKR-5 (human) (human) (UniProt P51681); assay: 125I-MIP-1β (0.1 nM) competition on activated CD4+ T cells; gp120 at 50 µg/ml
[9] = target: chemokine receptor C-C CKR-5 (human) (human) (UniProt P51681); assay: 125I-MIP-1β (0.1 nM) competition on activated CD4+ T cells; gp120 at 5 µg/ml
[10] = target: CD4 on the cell surface (human) (human) (UniProt P01730); assay: cell-based or functional assay
[11] = target: chemokine receptor C-C CKR-5 (human) (human) (UniProt P51681); assay: 125I-MIP-1β competition on CD4- CCR-5+ 293 cells; gp120 at 50 µg/ml; strongest competition observed
[12] = target: chemokine receptor C-C CKR-5 (human) (human) (UniProt P51681); assay: 125I-MIP-1β competition, CD4- CCR-5+ 293 cells against activated CD4+ T cells
[13] = target: wild-type CCR5, HA-tagged at the C-terminus (human) (UniProt P51681)
[14] = target: CCR5 H181A, HA-tagged (human) (UniProt P51681); assay: cell-based or functional assay
[15] = target: CCR5 E18A, HA-tagged (human) (UniProt P51681); assay: cell-based or functional assay
[16] = target: chemokine receptor C-C CKR-5 (human) (human) (UniProt P51681); assay: cell-based or functional assay
[17] = target: CCR5 D11A, HA-tagged (human) (UniProt P51681); assay: cell-based or functional assay
[18] = target: CCR5 Q188A, HA-tagged (human) (UniProt P51681); assay: cell-based or functional assay
[19] = target: CCR5 H175A, HA-tagged (human) (UniProt P51681); assay: cell-based or functional assay
[20] = target: CCR5 R31A, HA-tagged (human) (UniProt P51681); assay: cell-based or functional assay
[21] = target: CCR5 K171A/E172A, HA-tagged (human) (UniProt P51681); assay: cell-based or functional assay
[22] = target: CCR5 Q93A, HA-tagged (human) (UniProt P51681); assay: cell-based or functional assay
[23] = target: wild-type CCR5, HA-tagged at the C-terminus (human) (UniProt P51681); assay: cell-based or functional assay
[24] = target: CCR5 Y184A, HA-tagged (human) (UniProt P51681); assay: cell-based or functional assay
[25] = target: CCR5 Q102A, HA-tagged (human) (UniProt P51681); assay: cell-based or functional assay
[26] = target: CCR5 K26A, HA-tagged (human) (UniProt P51681); assay: cell-based or functional assay
[27] = target: CCR5 E262A, HA-tagged (human) (UniProt P51681); assay: cell-based or functional assay
[28] = target: CCR5 D2A, HA-tagged (human) (UniProt P51681); assay: cell-based or functional assay
[29] = target: CCR5 R274A/D276A, HA-tagged (human) (UniProt P51681); assay: cell-based or functional assay
[30] = target: CCR5 N13A, HA-tagged (human) (UniProt P51681); assay: cell-based or functional assay
[31] = target: CCR5 K191A/N192A, HA-tagged (human) (UniProt P51681); assay: cell-based or functional assay
[32] = target: CCR5 D95A, HA-tagged (human) (UniProt P51681); assay: cell-based or functional assay
[33] = target: CCR5 K22A, HA-tagged (human) (UniProt P51681); assay: cell-based or functional assay
[34] = target: CCR5 D2A/D11A/E18A, HA-tagged (human) (UniProt P51681); assay: cell-based or functional assay

synthetic ECL2 peptide of human CCR5 (from UniProt P51681 168-199)
inhibition of fusion between HeLa-envJR-FL cells and PM1 cells (RET), peptide at 11 µg/ml [1]: 15%
inhibition of fusion between HeLa-envJR-FL cells and PM1 cells (RET), peptide at 33 µg/ml [1]: 65%
inhibition of fusion between HeLa-envJR-FL cells and PM1 cells (RET), peptide at 100 µg/ml [1]: 97%

monoclonal antibody IgG1b12
Inhibition (%) of the gp120 competitive effect on 125I-MIP-1β binding [2]: 125%

monoclonal antibody 17b
Inhibition (%) of the gp120 competitive effect on 125I-MIP-1β binding [2]: 79%

antibody D7324
Inhibition (%) of the gp120 competitive effect on 125I-MIP-1β binding [2]: -13%

W61D gp120
percentage inhibition of 125I-MIP-1β binding [3]: 65%
percentage inhibition of 125I-MIP-1β binding [4]: 39%
percentage inhibition of 125I-MIP-1β binding [5]: 53%
percentage inhibition of 125I-MIP-1β binding [6]: 86%

recombinant gp41 (IIIB) ectodomain
percentage inhibition of 125I-MIP-1β binding [7]: 24%

monoclonal antibody 447-D
Inhibition (%) of the gp120 competitive effect on 125I-MIP-1β binding [2]: 109%

monoclonal antibody 15e
Inhibition (%) of the gp120 competitive effect on 125I-MIP-1β binding [2]: 65%

monoclonal antibody 48d
Inhibition (%) of the gp120 competitive effect on 125I-MIP-1β binding [2]: 54%

soluble, oligomeric JR-FL gp120/gp41 complex
percentage inhibition of 125I-MIP-1β binding [3]: 84%
percentage inhibition of 125I-MIP-1β binding [4]: 46%
percentage inhibition of 125I-MIP-1β binding [5]: 56%

soluble, oligomeric 92RW020 gp120/gp41 complex
percentage inhibition of 125I-MIP-1β binding [3]: 74%
percentage inhibition of 125I-MIP-1β binding [4]: 21%
percentage inhibition of 125I-MIP-1β binding [5]: 49%

monoclonal antibody 19b
Inhibition (%) of the gp120 competitive effect on 125I-MIP-1β binding [2]: 88%

monoclonal antibody 2G12
Inhibition (%) of the gp120 competitive effect on 125I-MIP-1β binding [2]: 38%

monoclonal antibody A32
Inhibition (%) of the gp120 competitive effect on 125I-MIP-1β binding [2]: 51%

recombinant, monomeric LAI gp120 (full-length) (from UniProt P03377 33-516) (other; other documents disagree on this pair)
percentage inhibition of 125I-MIP-1β binding [3]: -1%
percentage inhibition of 125I-MIP-1β binding [8]: -6%
percentage inhibition of 125I-MIP-1β binding [6]: -18%
percentage inhibition of 125I-MIP-1β binding [9]: -5%

CD4 MAb OKT4a (antibody)
% Fusion (RET), LW5 CD4+ cells with HeLa-BRU cells, OKT4A at 3 ug/ml [10]: 0%
% Fusion (RET), LW5 CD4+ cells with HeLa-JR-FL cells, OKT4A at 3 ug/ml [10]: 0%

CM243 gp120
percentage inhibition of 125I-MIP-1β binding [3]: 56%
percentage inhibition of 125I-MIP-1β binding [4]: 17%
percentage inhibition of 125I-MIP-1β binding [5]: 40%
percentage inhibition of 125I-MIP-1β binding [6]: 76%

92TH014 gp120 (monomeric)
percentage inhibition of 125I-MIP-1β binding [3]: 65%
percentage inhibition of 125I-MIP-1β binding [4]: 6%
percentage inhibition of 125I-MIP-1β binding [5]: 57%

monoclonal antibody 697-D
Inhibition (%) of the gp120 competitive effect on 125I-MIP-1β binding [2]: 3%

recombinant, monomeric JR-FL gp120 (full-length), P20871 32-503 (other; other documents disagree on this pair)
percent inhibition of MIP-1β binding [11]: 73%
percentage inhibition of 125I-MIP-1β binding [3]: 58%
percentage inhibition of 125I-MIP-1β binding [4]: 44%
percentage inhibition of 125I-MIP-1β binding [8]: 95%
percentage inhibition of 125I-MIP-1β binding [5]: 40%
percentage inhibition of 125I-MIP-1β binding [6]: 91%
fold higher gp120 concentration needed on CD4- cells than on CD4+ cells [12]: > 100 fold
percentage inhibition of 125I-MIP-1β binding [9]: 67%
inhibition of 2D7-PE binding (%) [13]: 70%

MIP-1α, recombinant human (from UniProt P10147 27-92) (ligand)
relative % inhibition of NLluc/JR-FL entry into U87MG-CD4 cells by 2 µg/ml chemokine (wild-type = 100) [14]: 29%
relative % inhibition of NLluc/JR-FL entry into U87MG-CD4 cells by 2 µg/ml chemokine (wild-type = 100) [15]: 100%
% Fusion (RET), LW5 CD4+ cells with HeLa-JR-FL cells, chemokine at 533 ng/ml [16]: 72%
% Fusion (RET), PM1 cells with HeLa-JR-FL cells, chemokine at 400 ng/ml [16]: 39%
% luciferase activity, entry of ADA env-complemented virus into PM1 cells, chemokine at 100 ng/ml [16]: 54%
% luciferase activity, entry of BaL env-complemented virus into PM1 cells, chemokine at 100 ng/ml [16]: 54%
relative % inhibition of NLluc/JR-FL entry into U87MG-CD4 cells by 2 µg/ml chemokine (wild-type = 100) [17]: 10%
relative % inhibition of NLluc/JR-FL entry into U87MG-CD4 cells by 2 µg/ml chemokine (wild-type = 100) [18]: 95%
relative % inhibition of NLluc/JR-FL entry into U87MG-CD4 cells by 2 µg/ml chemokine (wild-type = 100) [19]: 119%
relative % inhibition of NLluc/JR-FL entry into U87MG-CD4 cells by 2 µg/ml chemokine (wild-type = 100) [20]: -5%
relative % inhibition of NLluc/JR-FL entry into U87MG-CD4 cells by 2 µg/ml chemokine (wild-type = 100) [21]: 21%
relative % inhibition of NLluc/JR-FL entry into U87MG-CD4 cells by 2 µg/ml chemokine (wild-type = 100) [22]: 88%
relative % inhibition of NLluc/JR-FL entry into U87MG-CD4 cells by 2 µg/ml chemokine (wild-type = 100) [23]: 100%
relative % inhibition of NLluc/JR-FL entry into U87MG-CD4 cells by 2 µg/ml chemokine (wild-type = 100) [24]: 102%
relative % inhibition of NLluc/JR-FL entry into U87MG-CD4 cells by 2 µg/ml chemokine (wild-type = 100) [25]: 107%
relative % inhibition of NLluc/JR-FL entry into U87MG-CD4 cells by 2 µg/ml chemokine (wild-type = 100) [26]: 100%
relative % inhibition of NLluc/JR-FL entry into U87MG-CD4 cells by 2 µg/ml chemokine (wild-type = 100) [27]: 100%
relative % inhibition of NLluc/JR-FL entry into U87MG-CD4 cells by 2 µg/ml chemokine (wild-type = 100) [28]: 81%
relative % inhibition of NLluc/JR-FL entry into U87MG-CD4 cells by 2 µg/ml chemokine (wild-type = 100) [29]: 48%
relative % inhibition of NLluc/JR-FL entry into U87MG-CD4 cells by 2 µg/ml chemokine (wild-type = 100) [30]: 121%
relative % inhibition of NLluc/JR-FL entry into U87MG-CD4 cells by 2 µg/ml chemokine (wild-type = 100) [31]: 14%
relative % inhibition of NLluc/JR-FL entry into U87MG-CD4 cells by 2 µg/ml chemokine (wild-type = 100) [32]: 107%
relative % inhibition of NLluc/JR-FL entry into U87MG-CD4 cells by 2 µg/ml chemokine (wild-type = 100) [33]: 19%

SF170 gp120
percentage inhibition of 125I-MIP-1β binding [4]: 87%
percentage inhibition of 125I-MIP-1β binding [5]: 140%

HIV-1 JR-FL envelope glycoproteins (membrane-bound gp120/gp41)
co-receptor function of CCR5 (HIV-1 entry, luciferase), fold reduction [15]: 15 fold and 20 fold
co-receptor function of CCR5 (HIV-1 entry, luciferase), fold reduction [34]: 50 fold

From patent US20040086528A1
